# From patent publication US20180071366A1
# Numbered stars: 1 amine (or outer) side, 2 acyl side, 3 side chain; on linkers, the order of the positions; unused ones are H or OH. Bridge positions count the residues as written; N and C are the ends. Square brackets hold non-standard residues; d marks the D form. * marks the point of attachment. C20 diacid = O=C(O)CCCCCCCCCCCCCCCCCCC(=O)*; γGlu = O=C(O)[C@H](CCC(=O)[*:2])N[*:1]; Hyp = O=C(O)[C@@H]1C[C@@H](O)CN1; NMeI = CC[C@H](C)[C@H](NC)C(=O)O; Aad = N[C@@H](CCCC(=O)O)C(=O)O; Orn = NCCC[C@H](N)C(=O)O; Dab = NCC[C@H](N)C(=O)O; Dap = NC[C@H](N)C(=O)O; Sar = CNCC(=O)O
# B1: Compound 51 (peptide)
# peptide: {C20 diacid-γGlu}-REGTAT[Dab]ATERLAHFLQRSSF[Sar]A[NMeI]LSSTEVGSNT[Hyp]-NH2
# modifications: lactam 2-7
# SMILES: CC[C@H](C)[C@@H](C(=O)N[C@@H](CC(C)C)C(=O)N[C@@H](CO)C(=O)N[C@@H](CO)C(=O)N[C@H](C(=O)N[C@@H](CCC(=O)O)C(=O)N[C@H](C(=O)NCC(=O)N[C@@H](CO)C(=O)N[C@@H](CC(N)=O)C(=O)N[C@H](C(=O)N1C[C@H](O)C[C@H]1C(N)=O)[C@@H](C)O)C(C)C)[C@@H](C)O)N(C)C(=O)[C@H](C)NC(=O)CN(C)C(=O)[C@H](Cc1ccccc1)NC(=O)[C@H](CO)NC(=O)[C@H](CO)NC(=O)[C@H](CCCNC(=N)N)NC(=O)[C@H](CCC(N)=O)NC(=O)[C@H](CC(C)C)NC(=O)[C@H](Cc1ccccc1)NC(=O)[C@H](Cc1c[nH]cn1)NC(=O)[C@H](C)NC(=O)[C@H](CC(C)C)NC(=O)[C@H](CCCNC(=N)N)NC(=O)[C@H](CCC(=O)O)NC(=O)[C@@H](NC(=O)[C@H](C)NC(=O)[C@@H]1CCNC(=O)CC[C@H](NC(=O)[C@H](CCCNC(=N)N)NC(=O)CC[C@H](NC(=O)CCCCCCCCCCCCCCCCCCC(=O)O)C(=O)O)C(=O)NCC(=O)N[C@@H]([C@@H](C)O)C(=O)N[C@@H](C)C(=O)N[C@@H]([C@@H](C)O)C(=O)N1)[C@@H](C)O
# B2: Compound 1 (peptide)
# peptide: {C20 diacid-γGlu}-RDGTAT[Dap]ATERLAHFLQRSSF[Sar]A[NMeI]LSSTEVGSNT[Hyp]-NH2
# modifications: lactam 2-7
# SMILES: CC[C@H](C)[C@@H](C(=O)N[C@@H](CC(C)C)C(=O)N[C@@H](CO)C(=O)N[C@@H](CO)C(=O)N[C@H](C(=O)N[C@@H](CCC(=O)O)C(=O)N[C@H](C(=O)NCC(=O)N[C@@H](CO)C(=O)N[C@@H](CC(N)=O)C(=O)N[C@H](C(=O)N1C[C@H](O)C[C@H]1C(N)=O)[C@@H](C)O)C(C)C)[C@@H](C)O)N(C)C(=O)[C@H](C)NC(=O)CN(C)C(=O)[C@H](Cc1ccccc1)NC(=O)[C@H](CO)NC(=O)[C@H](CO)NC(=O)[C@H](CCCNC(=N)N)NC(=O)[C@H](CCC(N)=O)NC(=O)[C@H](CC(C)C)NC(=O)[C@H](Cc1ccccc1)NC(=O)[C@H](Cc1c[nH]cn1)NC(=O)[C@H](C)NC(=O)[C@H](CC(C)C)NC(=O)[C@H](CCCNC(=N)N)NC(=O)[C@H](CCC(=O)O)NC(=O)[C@@H](NC(=O)[C@H](C)NC(=O)[C@@H]1CNC(=O)C[C@H](NC(=O)[C@H](CCCNC(=N)N)NC(=O)CC[C@H](NC(=O)CCCCCCCCCCCCCCCCCCC(=O)O)C(=O)O)C(=O)NCC(=O)N[C@@H]([C@@H](C)O)C(=O)N[C@@H](C)C(=O)N[C@@H]([C@@H](C)O)C(=O)N1)[C@@H](C)O
# B3: Ref. 1 (peptide)
# peptide: {C20 diacid-γGlu}-RDGTAT[Orn]ATERLAHFLQRSSF[Sar]A[NMeI]PSSTEVGSNT[Hyp]-NH2
# SMILES: CC[C@H](C)[C@@H](C(=O)N1CCC[C@H]1C(=O)N[C@@H](CO)C(=O)N[C@@H](CO)C(=O)N[C@H](C(=O)N[C@@H](CCC(=O)O)C(=O)N[C@H](C(=O)NCC(=O)N[C@@H](CO)C(=O)N[C@@H](CC(N)=O)C(=O)N[C@H](C(=O)N1C[C@H](O)C[C@H]1C(N)=O)[C@@H](C)O)C(C)C)[C@@H](C)O)N(C)C(=O)[C@H](C)NC(=O)CN(C)C(=O)[C@H](Cc1ccccc1)NC(=O)[C@H](CO)NC(=O)[C@H](CO)NC(=O)[C@H](CCCNC(=N)N)NC(=O)[C@H](CCC(N)=O)NC(=O)[C@H](CC(C)C)NC(=O)[C@H](Cc1ccccc1)NC(=O)[C@H](Cc1c[nH]cn1)NC(=O)[C@H](C)NC(=O)[C@H](CC(C)C)NC(=O)[C@H](CCCNC(=N)N)NC(=O)[C@H](CCC(=O)O)NC(=O)[C@@H](NC(=O)[C@H](C)NC(=O)[C@H](CCCN)NC(=O)[C@@H](NC(=O)[C@H](C)NC(=O)[C@@H](NC(=O)CNC(=O)[C@H](CC(=O)O)NC(=O)[C@H](CCCNC(=N)N)NC(=O)CC[C@H](NC(=O)CCCCCCCCCCCCCCCCCCC(=O)O)C(=O)O)[C@@H](C)O)[C@@H](C)O)[C@@H](C)O
# B4: Compound 5 (peptide)
# peptide: {C20 diacid-γGlu}-RDGTAT[Orn]ATERLAHFLQRSSF[Sar]A[NMeI]PSSTEVGSNT[Hyp]-NH2
# modifications: lactam 2-7
# SMILES: CC[C@H](C)[C@@H](C(=O)N1CCC[C@H]1C(=O)N[C@@H](CO)C(=O)N[C@@H](CO)C(=O)N[C@H](C(=O)N[C@@H](CCC(=O)O)C(=O)N[C@H](C(=O)NCC(=O)N[C@@H](CO)C(=O)N[C@@H](CC(N)=O)C(=O)N[C@H](C(=O)N1C[C@H](O)C[C@H]1C(N)=O)[C@@H](C)O)C(C)C)[C@@H](C)O)N(C)C(=O)[C@H](C)NC(=O)CN(C)C(=O)[C@H](Cc1ccccc1)NC(=O)[C@H](CO)NC(=O)[C@H](CO)NC(=O)[C@H](CCCNC(=N)N)NC(=O)[C@H](CCC(N)=O)NC(=O)[C@H](CC(C)C)NC(=O)[C@H](Cc1ccccc1)NC(=O)[C@H](Cc1c[nH]cn1)NC(=O)[C@H](C)NC(=O)[C@H](CC(C)C)NC(=O)[C@H](CCCNC(=N)N)NC(=O)[C@H](CCC(=O)O)NC(=O)[C@@H](NC(=O)[C@H](C)NC(=O)[C@@H]1CCCNC(=O)C[C@H](NC(=O)[C@H](CCCNC(=N)N)NC(=O)CC[C@H](NC(=O)CCCCCCCCCCCCCCCCCCC(=O)O)C(=O)O)C(=O)NCC(=O)N[C@@H]([C@@H](C)O)C(=O)N[C@@H](C)C(=O)N[C@@H]([C@@H](C)O)C(=O)N1)[C@@H](C)O
# B5: Compound 50 (peptide)
# peptide: {C20 diacid-γGlu}-R[Aad]GTAT[Dap]ATERLAHFLQRSSF[Sar]A[NMeI]LSSTEVGSNT[Hyp]-NH2
# modifications: lactam 2-7
# SMILES: CC[C@H](C)[C@@H](C(=O)N[C@@H](CC(C)C)C(=O)N[C@@H](CO)C(=O)N[C@@H](CO)C(=O)N[C@H](C(=O)N[C@@H](CCC(=O)O)C(=O)N[C@H](C(=O)NCC(=O)N[C@@H](CO)C(=O)N[C@@H](CC(N)=O)C(=O)N[C@H](C(=O)N1C[C@H](O)C[C@H]1C(N)=O)[C@@H](C)O)C(C)C)[C@@H](C)O)N(C)C(=O)[C@H](C)NC(=O)CN(C)C(=O)[C@H](Cc1ccccc1)NC(=O)[C@H](CO)NC(=O)[C@H](CO)NC(=O)[C@H](CCCNC(=N)N)NC(=O)[C@H](CCC(N)=O)NC(=O)[C@H](CC(C)C)NC(=O)[C@H](Cc1ccccc1)NC(=O)[C@H](Cc1c[nH]cn1)NC(=O)[C@H](C)NC(=O)[C@H](CC(C)C)NC(=O)[C@H](CCCNC(=N)N)NC(=O)[C@H](CCC(=O)O)NC(=O)[C@@H](NC(=O)[C@H](C)NC(=O)[C@@H]1CNC(=O)CCC[C@H](NC(=O)[C@H](CCCNC(=N)N)NC(=O)CC[C@H](NC(=O)CCCCCCCCCCCCCCCCCCC(=O)O)C(=O)O)C(=O)NCC(=O)N[C@@H]([C@@H](C)O)C(=O)N[C@@H](C)C(=O)N[C@@H]([C@@H](C)O)C(=O)N1)[C@@H](C)O
# Target: recombinant human amylin 3 receptor (hAMYR3) (human), P30988
# Sequence (P30988 25-474, chain 1 of 2): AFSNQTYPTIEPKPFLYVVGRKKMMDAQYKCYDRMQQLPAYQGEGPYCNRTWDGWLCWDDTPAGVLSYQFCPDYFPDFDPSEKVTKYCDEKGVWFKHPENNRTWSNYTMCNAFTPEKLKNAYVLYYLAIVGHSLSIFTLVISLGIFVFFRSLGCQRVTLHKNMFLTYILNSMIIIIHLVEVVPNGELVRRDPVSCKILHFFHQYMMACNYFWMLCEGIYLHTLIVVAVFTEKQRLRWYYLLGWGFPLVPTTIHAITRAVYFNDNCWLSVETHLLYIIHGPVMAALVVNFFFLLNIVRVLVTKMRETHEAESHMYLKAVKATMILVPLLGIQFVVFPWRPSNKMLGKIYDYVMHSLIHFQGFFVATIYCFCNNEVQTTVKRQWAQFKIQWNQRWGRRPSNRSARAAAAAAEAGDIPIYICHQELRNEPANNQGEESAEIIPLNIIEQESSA
# Sequence (O60896 24-148, chain 2 of 2, further chain): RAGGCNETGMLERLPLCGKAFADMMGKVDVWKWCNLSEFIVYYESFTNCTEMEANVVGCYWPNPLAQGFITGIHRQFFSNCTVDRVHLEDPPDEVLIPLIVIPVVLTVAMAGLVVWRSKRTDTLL
# Assay: cell-based or functional assay
row,Binder,"hAMYR3 EC50 [nM] (cAMP formation, 1321N1 cells expressing hAMYR3)"
1,B1,0.306 nM
2,B2,9.3 nM
3,B3,17.1 nM
4,B4,0.032 nM
5,B5,1.5 nM

# Target: recombinant human calcitonin receptor (hCT-R) (human), P30988
# Sequence (P30988 25-474): as the sequence (P30988 25-474, chain 1 of 2) above
# Assay: cell-based or functional assay
row,Binder,"hCT-R EC50 [nM] (cAMP formation, 1321N1 cells expressing hCT-R)"
1,B1,0.861 nM
2,B2,13.6 nM
3,B3,20.3 nM
4,B4,0.114 nM
5,B5,3.3 nM
